# PMC10816986, “The Role of Key Amino Acids of the Human Fe(II)/2OG-Dependent Dioxygenase ALKBH3 in Structural Dynamics and Repair Activity toward Methylated DNA” (International Journal of Molecular Sciences, 2024)
# Experiments:
# [1] = test system: single-stranded DNA substrate m3C_FAM; test: Enzymatic demethylation of single-stranded m3C DNA (chemical quenching, HpaII cleavage, PAGE); format: biochemical; conditions: for observed rate constant for demethylation, kobs: single exponential fit of product accumulation; for maximum DNA substrate demethylation degree (product yield): 90 min reaction, 2 µM enzyme and m3C_FAM, 40 µM Fe(II), 1 mM 2OG, 25 °C
# Protocol: The enzymatic activity of wt ALKBH3 dioxygenase and the Y143F, Y143A, L177A, and H191A mutants was investigated in a reaction with a 15nt single-stranded oligonucleotide substrate containing m3C at the ninth position from the 5’-end (see Section 4).
# An enzymatic hydroxylation of a single-strand m3C-containing DNA was studied using a chemical quenching technique recently described for the ALKBH2 dioxygenase in [7]. Briefly, a typical reaction mixture contained an equimolar amount (2 µM) of the protein and FAM-labeled DNA substrate (m3C_FAM) in a buffer consisting of 50 mM of HEPES-KOH (pH 7.8), 50 mM of KCl, 10 mM of MgCl2, 1 mM of 2OG, 2 mM of sodium ascorbate, and 40 µM of (NH4)2Fe(SO4)2·6H2O. An equal volume of 0.2 M NaOH was added to […] of aliquots of the mixture to terminate the reaction at certain time points. After neutralization with HCl and desalting, each of the aliquots was supplemented by the complementary DNA strand and treated with the HpaII restriction endonuclease specific to the repaired sequence (CCGG) according to the manufacturer’s protocol. The resulting reaction product was separated from the substrate using denaturating PAGE and visualized by the Amersham Typhoon Imager (Cytiva, Uppsala, Sweden) (Supplementary Figure S1). Data for the wt, Y143F, and Y143A proteins were converted to mol/L units and then fitted to a single exponent (Equation (1)), where P, P0, and Pmax are amounts of product at any given time, at the zero-time point, and the end time point, respectively; kobs is the observed rate constant. (1) P=P0+Pmax(1−exp−kobst) […]
# Figure 2 The catalytic activity of wt and mutant ALKBH3 proteins on single-stranded DNA substrate m3C_FAM. Time courses of the dealkylated product accumulation were obtained at 25 °C by mixing an equimolar amount (2 μM) of enzyme and FAM-labeled DNA substrate dissolved in the reaction buffer containing 40 μM Fe(II) and 1 mM 2OG. Each reaction time point is the mean ± SD of three technical replicates.
# Figure S1. PAGE analysis of ALKBH3 repair activity towards the m3C -containing substrate. ALKBH3 at 2 µM was incubated with an equimolar amount of a FA M - labelled single-stranded substrate m3C_FAM. The reaction was quenched at each time point by the addition of an equal volume of 0.2 M NaOH.
# (§1) (1 picture or pasted object on this page, not shown here)
# [2] = Equilibrium fluorescence titration with Co(II); format: binding; conditions: 1 µM apoprotein, 25 °C; read-out: Dissociation constant Kd, Co(II)
# Description: To investigate the impact of selected mutations on ALKBH3’s ability to bind its cofactor, co-substrate, and methylated DNA, the fluorescent titration method was employed. It is well-established that enzyme–ligand binding typically leads to a protein conformational change, which in turn can alter the fluorescence intensity of tryptophan and tyrosine residues within the protein sequence. […] In this study, transitional metals (Fe(II), Ni(II), and Co(II)), 2OG, and the m3C substrate served as titrants. Protein fluorescence quenching was measured after the addition of an excess of the ligand to 1 µM of enzyme (Supplementary Figure S2). To determine the equilibrium dissociation constant’s Kd values, the resulting titration curves were analyzed using a non-linear regression algorithm (see Section 4.3 of “Materials and Methods” for details). […] As indicated by the data presented in Table 2, the stability of the wt ALKBH3 apoenzyme’s affinity to various ligands and damaged DNA generally corresponds to the stability of such complexes for AlkB and ALKBH2 enzymes. […] The binding of Ni(II) and Co(II) ions of similar radii was weakened by approximately two-fold. […] This behavior is more characteristic of the bacterial homolog AlkB rather than human ALKBH2 [7].
# The intrinsic tryptophan fluorescence quenching was monitored at the maximum of emission (345 nm, in most cases) using an excitation wavelength of 280 nm, and 5 nm slits. An amount of 2 mM of (NH4)2Fe(SO4)2·6H2O, 2 mM of NiSO4×7H2O, 2 mM of CoSO4·7H2O, 2 mM of 2OG, or 100 µM of m3C substrate was titrated into 1 µM of apoprotein (a free enzyme with no metal or 2OG added) in the presence of 50 mM of HEPES-KOH (pH 7.8), 50 mM of KCl, and 10 mM of MgCl2. When titrating with DNA, the buffer was supplemented with 2 mM of EDTA. The dissociation constant Kd for a model of one-step binding (E + L ↔ EL) was determined using Equations (2)–(5) and a non-linear regression algorithm in the OriginPro 8.1 software (OriginLab Corp., Northampton, MA, USA):(2) Kd=E[L]/[EL] (3) F=f0+f1E+f2[EL] (4) e0=E+[EL] (5) l0=L+[EL] where F is the observed fluorescence intensity at any given ligand (L) concentration; f0 is the background fluorescence; f1 and f2 are partial fluorescence intensities of the free enzyme (E) and enzyme–ligand complex (EL), respectively; e0 and l0 are total concentrations of the enzyme and ligand.
# Figure S2. Equilibrium binding of the wild-type and mutant ALKBH3 proteins to transition metals, 2OG, or m3C-containing DNA. The quenching of the enzyme ﬂuorescence is shown as a function of Fe(II) (A), Ni(II) (B), Co(II) (C), 2OG ( D), and single-stranded m3C substrate (E). The protein concentration was 1 µM. In the course of titration by Fe(II), a sodium ascorbate (1mM) was added to keep the metal in a reduced state. Experimental data points were ﬁtted to a single-site binding mode l (see “Materials and Methods”). Each trace represents the average of three technical […]
# as §1
Molecule,Kd [2] [µM],"observed rate constant for demethylation, kobs [1] [min⁻¹]",maximum DNA substrate demethylation degree (product yield) [1]
"Y143F ALKBH3: ALKBH3 mutant, Tyr143 replaced with Phe (protein, UniProt Q96Q83 1-286, looked up, variant Y143F) Alpha-ketoglutarate-dependent …: MEEKRRRARVQGAWAAPVKSQAIAQPATTAKSHLHQKPGQTWKNKEHHLSDREFVFKEPQQVVRRAPEPRVIDREGVYEISLSPTGVSRVCLYPGFVDVKEADWILEQLCQDVPWKQRTGIREDITYQQPRLTAWYGELPYTFSRITMEPNPHWHPVLRTLKNRIEENTGHTFNSLLCNLYRNEKDSVDWHSDDEPSLGRCPIIASLSFGATRTFEMRKKPPPEENGDYTYVERVKIPLDHGTLLIMEGATQADWQHRVPKEYHSREPRVNLTFRTVYPDPRGAPW",40 ± 3,0.17 ± 0.02,30%
"L177A ALKBH3: ALKBH3 mutant, Leu177 replaced with Ala (protein, UniProt Q96Q83 1-286, looked up, variant L177A) Alpha-ketoglutarate-dependent …: MEEKRRRARVQGAWAAPVKSQAIAQPATTAKSHLHQKPGQTWKNKEHHLSDREFVFKEPQQVVRRAPEPRVIDREGVYEISLSPTGVSRVCLYPGFVDVKEADWILEQLCQDVPWKQRTGIREDITYQQPRLTAWYGELPYTYSRITMEPNPHWHPVLRTLKNRIEENTGHTFNSLACNLYRNEKDSVDWHSDDEPSLGRCPIIASLSFGATRTFEMRKKPPPEENGDYTYVERVKIPLDHGTLLIMEGATQADWQHRVPKEYHSREPRVNLTFRTVYPDPRGAPW",98 ± 9,–,≤ 7%
"Y143A ALKBH3: ALKBH3 mutant, Tyr143 replaced with Ala (protein, UniProt Q96Q83 1-286, looked up, variant Y143A) Alpha-ketoglutarate-dependent …: MEEKRRRARVQGAWAAPVKSQAIAQPATTAKSHLHQKPGQTWKNKEHHLSDREFVFKEPQQVVRRAPEPRVIDREGVYEISLSPTGVSRVCLYPGFVDVKEADWILEQLCQDVPWKQRTGIREDITYQQPRLTAWYGELPYTASRITMEPNPHWHPVLRTLKNRIEENTGHTFNSLLCNLYRNEKDSVDWHSDDEPSLGRCPIIASLSFGATRTFEMRKKPPPEENGDYTYVERVKIPLDHGTLLIMEGATQADWQHRVPKEYHSREPRVNLTFRTVYPDPRGAPW",44 ± 4,–,10%

# Continued, in another order:
Kd [2] [µM],Molecule,"observed rate constant for demethylation, kobs [1] [min⁻¹]",maximum DNA substrate demethylation degree (product yield) [1]
52 ± 4,"wt ALKBH3: wild-type human Fe(II)/2OG-dependent dioxygenase ALKBH3 with N-terminal His-tag, expressed in E. coli (protein, UniProt Q96Q83 1-286, looked up, N-terminal His-tag, wild-type human Fe(II)/2OG-dependent dioxygenase ALKBH3 with N-terminal His-tag, expressed in E. coli) Alpha-ketoglutarate-dependent …: MEEKRRRARVQGAWAAPVKSQAIAQPATTAKSHLHQKPGQTWKNKEHHLSDREFVFKEPQQVVRRAPEPRVIDREGVYEISLSPTGVSRVCLYPGFVDVKEADWILEQLCQDVPWKQRTGIREDITYQQPRLTAWYGELPYTYSRITMEPNPHWHPVLRTLKNRIEENTGHTFNSLLCNLYRNEKDSVDWHSDDEPSLGRCPIIASLSFGATRTFEMRKKPPPEENGDYTYVERVKIPLDHGTLLIMEGATQADWQHRVPKEYHSREPRVNLTFRTVYPDPRGAPW",0.70 ± 0.08,–
59 ± 6,"H191A ALKBH3: ALKBH3 mutant, His191 replaced with Ala (protein, UniProt Q96Q83 1-286, looked up, variant H191A) Alpha-ketoglutarate-dependent …: MEEKRRRARVQGAWAAPVKSQAIAQPATTAKSHLHQKPGQTWKNKEHHLSDREFVFKEPQQVVRRAPEPRVIDREGVYEISLSPTGVSRVCLYPGFVDVKEADWILEQLCQDVPWKQRTGIREDITYQQPRLTAWYGELPYTYSRITMEPNPHWHPVLRTLKNRIEENTGHTFNSLLCNLYRNEKDSVDWASDDEPSLGRCPIIASLSFGATRTFEMRKKPPPEENGDYTYVERVKIPLDHGTLLIMEGATQADWQHRVPKEYHSREPRVNLTFRTVYPDPRGAPW",–,undetectable
